Data taken from PMC10663500, “High-throughput analysis system of interaction kinetics for data-driven antibody design” (Scientific Reports, 2023).

Legend:
[1] = molecular target: T1, human programmed cell death protein 1 (hPD-1) C93S (aa 24-167) (Homo sapiens, UniProt Q15116, C93S); experiment: SPR; Carterra LSA; Fab from the ammonium sulfate precipitate of the culture supernatant immobilised on a NiHC200M chip; hPD-1 (1-1024 nM) or mPD-1-Fc (4-1024 nM) as analyte, fourfold dilution series, no regeneration; HBS-EP pH 7.4, 25 °C; medians over the spots of a construct, KD = koff/kon; conditions: one partner purified
T1 construct: made as a fusion with a TEV site and human Fc; the Fc was cut off with TEV protease; source: Expi293F, purified (Protein A, TEV cleavage of Fc, SEC; monomer fractions); not shown: Fc (human), C-terminal, cleaved
Method in brief: (§1)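 Fabs, ammonium sulfate-precipitated from Brevibacillus supernatants and redissolved in HBS-EP, were captured in duplicate on a NiHC200M chip on a Carterra LSA at 25 °C. Fourfold series of human PD-1 (1–1024 nM) or mouse PD-1-Fc (4–1024 nM) were run without regeneration, with association for 10 min and dissociation for 5 min. Rates were fitted with the kdka model, choosing the better of slow- or fast-dissociation settings, and unconfirmed binders were given kon 10^3 […] and koff 10^−2 s^−1. The dissociation constant KD is koff/kon based on per-construct medians.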

[2] = molecular target: T2, mouse programmed cell death protein 1 Fc fusion protein (mPD-1-Fc), mPD-1 C60S (aa 25-167) (Mus musculus, UniProt Q02242, stabilised); experiment: as above; conditions: one partner purified
T2 construct: not cleaved; source: Expi293F, purified (Protein A, SEC; dimeric fraction); not shown: Fc (human), C-terminal, kept
Method in brief: as §1

T1 sequence (Q15116 24-167 C93S): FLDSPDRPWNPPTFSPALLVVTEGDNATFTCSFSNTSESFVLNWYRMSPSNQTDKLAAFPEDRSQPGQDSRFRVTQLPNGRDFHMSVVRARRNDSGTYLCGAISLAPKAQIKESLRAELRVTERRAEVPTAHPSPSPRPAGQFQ

B1: toripalimab Fab H.T55Y (Fab, V domains shown)
VH: QGQLVQSGAEVKKPGASVKVSCKASGYTFTDYEMHWVRQAPIHGLEWIGVIESEYGGTAYNQKFKGRVTITADKSTSTAYMELSSLRSEDTAVYYCAREGITTVATTYYWYFDVWGQGTTVTVSS
VL: DVVMTQSPLSLPVTLGQPASISCRSSQSIVHSNGNTYLEWYLQKPGQSPQLLIYKVSNRFSGVPDRFSGSGSGTDFTLKISRVEAEDVGVYYCFQGSHVPLTFGQGTKLEIK
notes: heavy chain of Sm3 with this change; numbers count from the chain's first residue; as the light chain of Sm3; source: Brevibacillus, culture supernatant (ammonium sulfate precipitate); not shown: 6xHis, C-terminal, kept; 6xHN, C-terminal, kept
Kd [1]: < 0.354 nM | koff [1]: < 1e-05 s⁻¹ | kon [1]: 28300 M⁻¹ s⁻¹ | Kd [2]: 35.8 nM | koff [2]: 0.00179 s⁻¹ | kon [2]: 49900 M⁻¹ s⁻¹

B2: toripalimab Fab H.G57A (Fab, V domains shown)
VH: QGQLVQSGAEVKKPGASVKVSCKASGYTFTDYEMHWVRQAPIHGLEWIGVIESETGATAYNQKFKGRVTITADKSTSTAYMELSSLRSEDTAVYYCAREGITTVATTYYWYFDVWGQGTTVTVSS
VL: DVVMTQSPLSLPVTLGQPASISCRSSQSIVHSNGNTYLEWYLQKPGQSPQLLIYKVSNRFSGVPDRFSGSGSGTDFTLKISRVEAEDVGVYYCFQGSHVPLTFGQGTKLEIK
notes: as for B1
Kd [1]: 0.598 nM | koff [1]: 1.47e-05 s⁻¹ | kon [1]: 24500 M⁻¹ s⁻¹ | Kd [2]: 125 nM | koff [2]: 0.00625 s⁻¹ | kon [2]: 50100 M⁻¹ s⁻¹

B3: toripalimab Fab H.T58A (Fab, V domains shown)
VH: QGQLVQSGAEVKKPGASVKVSCKASGYTFTDYEMHWVRQAPIHGLEWIGVIESETGGAAYNQKFKGRVTITADKSTSTAYMELSSLRSEDTAVYYCAREGITTVATTYYWYFDVWGQGTTVTVSS
VL: DVVMTQSPLSLPVTLGQPASISCRSSQSIVHSNGNTYLEWYLQKPGQSPQLLIYKVSNRFSGVPDRFSGSGSGTDFTLKISRVEAEDVGVYYCFQGSHVPLTFGQGTKLEIK
notes: as for B1
Kd [1]: < 0.662 nM | koff [1]: < 1e-05 s⁻¹ | kon [1]: 15100 M⁻¹ s⁻¹ | Kd [2]: 169 nM | koff [2]: 0.0066 s⁻¹ | kon [2]: 39000 M⁻¹ s⁻¹

B4: toripalimab Fab H.Q62Y (Fab, V domains shown)
VH: QGQLVQSGAEVKKPGASVKVSCKASGYTFTDYEMHWVRQAPIHGLEWIGVIESETGGTAYNYKFKGRVTITADKSTSTAYMELSSLRSEDTAVYYCAREGITTVATTYYWYFDVWGQGTTVTVSS
VL: DVVMTQSPLSLPVTLGQPASISCRSSQSIVHSNGNTYLEWYLQKPGQSPQLLIYKVSNRFSGVPDRFSGSGSGTDFTLKISRVEAEDVGVYYCFQGSHVPLTFGQGTKLEIK
notes: as for B1
Kd [1]: < 1.29 nM | koff [1]: < 1e-05 s⁻¹ | kon [1]: 7750 M⁻¹ s⁻¹ | Kd [2]: 186 nM | koff [2]: 0.00625 s⁻¹ | kon [2]: 33600 M⁻¹ s⁻¹

B5: toripalimab Fab H.Q62A (Fab, V domains shown)
VH: QGQLVQSGAEVKKPGASVKVSCKASGYTFTDYEMHWVRQAPIHGLEWIGVIESETGGTAYNAKFKGRVTITADKSTSTAYMELSSLRSEDTAVYYCAREGITTVATTYYWYFDVWGQGTTVTVSS
VL: DVVMTQSPLSLPVTLGQPASISCRSSQSIVHSNGNTYLEWYLQKPGQSPQLLIYKVSNRFSGVPDRFSGSGSGTDFTLKISRVEAEDVGVYYCFQGSHVPLTFGQGTKLEIK
notes: as for B1
Kd [1]: < 1.29 nM | koff [1]: < 1e-05 s⁻¹ | kon [1]: 7730 M⁻¹ s⁻¹ | Kd [2]: 153 nM | koff [2]: 0.00564 s⁻¹ | kon [2]: 37000 M⁻¹ s⁻¹

B6: toripalimab Fab H.A59Y (Fab, V domains shown)
VH: QGQLVQSGAEVKKPGASVKVSCKASGYTFTDYEMHWVRQAPIHGLEWIGVIESETGGTYYNQKFKGRVTITADKSTSTAYMELSSLRSEDTAVYYCAREGITTVATTYYWYFDVWGQGTTVTVSS
VL: DVVMTQSPLSLPVTLGQPASISCRSSQSIVHSNGNTYLEWYLQKPGQSPQLLIYKVSNRFSGVPDRFSGSGSGTDFTLKISRVEAEDVGVYYCFQGSHVPLTFGQGTKLEIK
notes: as for B1
Kd [1]: 2.18 nM | koff [1]: 4.81e-05 s⁻¹ | kon [1]: 22100 M⁻¹ s⁻¹ | Kd [2]: 345 nM | koff [2]: 0.0135 s⁻¹ | kon [2]: 39200 M⁻¹ s⁻¹

B7: toripalimab Fab H.Y60A (Fab, V domains shown)
VH: QGQLVQSGAEVKKPGASVKVSCKASGYTFTDYEMHWVRQAPIHGLEWIGVIESETGGTAANQKFKGRVTITADKSTSTAYMELSSLRSEDTAVYYCAREGITTVATTYYWYFDVWGQGTTVTVSS
VL: DVVMTQSPLSLPVTLGQPASISCRSSQSIVHSNGNTYLEWYLQKPGQSPQLLIYKVSNRFSGVPDRFSGSGSGTDFTLKISRVEAEDVGVYYCFQGSHVPLTFGQGTKLEIK
notes: as for B1
Kd [1]: < 0.309 nM | koff [1]: < 1e-05 s⁻¹ | kon [1]: 32300 M⁻¹ s⁻¹ | Kd [2]: 88.2 nM | koff [2]: 0.00422 s⁻¹ | kon [2]: 47900 M⁻¹ s⁻¹
